Results from PMC8238520 (2021).
Where no end group is shown, it is not given here. [ ]: non-standard residue; d: D form. pS = N[C@@H](COP(=O)(O)O)C(=O)O

B1: 14-3-3ζ dimer (natural protein)
chain: MDKNELVQKAKLAEQAERYDDMAACMKSVTEQGAELSNEERNLLSVAYKNVVGARRSSWRVVSSIEQKTEGAEKKQQMAREYREKIETELRDICNDVLSLLEKFLIPNASQAESKVFYLKMKGDYYRYLAEVAAGDDKKGIVDQSQQAYQEAFEISKKEMQPTHPIRLGLALNFSVFYYEILNSPEKACSLAKTAFDEAIAELDTLSEESYKDSTLIMQLLRDNLTLWTSDTQGDEAEAGEGGEN

Key:
Assay in all cases: FP
14-3-3ζ dimer = biological target: B1
[1] = biological target: FAM-tagged PKCε pSer346/pSer350 phosphopeptide (UniProt P16054, phosphoserine at 346; phosphoserine at 350; FAM label (end not stated))
[2] = biological target: FAM-tagged PKCε pSer346 phosphopeptide (UniProt P16054, phosphoserine at 346; FAM label (end not stated))

| Binder | Kd (14-3-3ζ dimer) | Kd [1] | Kd [2] |
| --- | --- | --- | --- |
| DRSK[pS]APT[pS]PCDQEIKELENNIRKAL[pS]FDNR (also: FAM label (end not given here)) [FAM-tagged PKCε pSer346/pSer350/pSer368 phosphopeptide] | 0.147 µM |  |  |
| B1 |  | 335 µM | 31.5 µM |
| DRSK[pS]APTSPCDQEIKELENNIRKAL[pS]FDNR (also: FAM label (end not given here)) [FAM-tagged PKCε pSer346/pSer368 phosphopeptide] | 0.03 µM |  |  |
